B1: Cas7-Cas5-Cas11 fusion subunit of the Synechocystis sp. PCC 6803 Type III-Dv complex (other)
chain: MRGIEITITMQSDWHVGTGMGRGELDSVVQRDGDNLPYIPGKTLTGILRDSCEQVALGLDNGQTRGLWHGWINFIFGDQPALAQGAIEPEPRPALIAIGSAHLDPKLKAAFQGKKQLQEAIAFMKPGVAIDAITGTAKKDFLRFEEVVRLGAKLTAEVELNLPDNLSETNKKVIAGILASGAKLTERLGGKRRRGNGRCELKFSGYSDQQIQWLKDNYQSVDQPPKYQQNKLQSAGDNPEQQPPWHIIPLTIKTLSPVVLPARTVGNVVECLDYIPGRYLLGYIHKTLGEYFDVSQAIAAGDLIITNATIKIDGKAGRATPFCLFGEKLDGGLGKGKGVYNRFQESEPDGIQLKGERGGYVGQFEQEQRNLPNTGKINSELFTHNTIQDDVQRPTSDVGGVYSYEAIIAGQTFVAELRLPDSLVKQITSKNKNWQAQLKATIRIGQSKKDQYGKIEVTSGNSADLPKPTGNNKTLSIWFLSDILLRGDRLNFNATPDDLKKYLENALDIKLKERSDNDLICIALRSQRTESWQVRWGLPRPSLVGWQAGSCLIYDIESGTVNAEKLQELMITGIGDRCTEGYGQIGFNDPLLSASLGKLTAKPKASNNQSQNSQSNPLPTNHPTQDYARLIEKAAWREAIQNKALALASSRAKREEILGIKIMGKDSQPTMTQLGGFRSVLKRLHSRNNRDIVTGYLTALEQVSNRKEKWSNTSQGLTKIRNLVTQENLIWNHLDIDFSPLTITQNGVNQLKSELWAEAVRTLVDAIIRGHKRDLEKAQENESNQQSQGAA
notes: Untagged, co-expressed from pPF2434 in E. coli; one copy in the complex; also called Cas7-5-11; Cas5-Cas7-Cas11

The target in data set [1] is T1, Cas7-Cas7 fusion subunit of the Synechocystis sp. PCC 6803 Type III-Dv complex (Synechocystis sp. PCC 6803).
T1 construct: Untagged, co-expressed from pPF2434 in E. coli; one copy in the complex; also called Cas7-2x; Cas7_2x
T1 chain: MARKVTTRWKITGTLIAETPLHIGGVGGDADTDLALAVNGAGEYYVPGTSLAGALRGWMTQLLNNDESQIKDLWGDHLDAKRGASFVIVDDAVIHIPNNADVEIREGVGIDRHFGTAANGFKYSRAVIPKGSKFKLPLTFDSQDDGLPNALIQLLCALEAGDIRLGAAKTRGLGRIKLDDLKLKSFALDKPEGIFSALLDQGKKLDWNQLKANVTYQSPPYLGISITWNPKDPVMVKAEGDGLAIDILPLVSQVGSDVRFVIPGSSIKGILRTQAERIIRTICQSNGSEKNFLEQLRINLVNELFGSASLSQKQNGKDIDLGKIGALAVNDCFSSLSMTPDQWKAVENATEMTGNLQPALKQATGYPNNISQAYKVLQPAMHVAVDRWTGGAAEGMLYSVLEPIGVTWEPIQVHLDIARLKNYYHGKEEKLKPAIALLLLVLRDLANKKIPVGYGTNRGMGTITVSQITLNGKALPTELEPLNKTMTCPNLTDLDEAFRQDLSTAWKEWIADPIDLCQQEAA
The data set can be described thus: cryo-EM structure of the binary complex, 2.5 Å. As to the method: (§1) Fully assembled Type III-D binary complex was diluted to a concentration of 0.3 mg/ml in SEC buffer before 2.5 μl of sample was added to a quantifoil 1.2/1.3 grid that was glow discharged for 1 minute. Sample was applied to the grid in an FEI Vitrobot MarkIV kept at 100% humidity and 4° C. before blotting for 5.5 seconds with a force of 0. For the ssRNA target-bound complex, non-self ssRNA was mixed with the binary complex with a 2:1 molar ratio of RNA:Binary complex in SEC buffer to a final protein concentration of 0.3 mg/mL. Grids of the target-bound complex were frozen identical to that of the binary complex. Both grids were loaded to an FEI Titan Krios (Sauer Structural Biology Lab, University of Texas at Austin) operating at 300 kV. Images were taken at a pixel size of 0.81 Å/pixel with a dose rate of 10.6 e⁻/pixel/s for 5 seconds using a Gatan K3 direct electron detector, giving a final dosage of 80.5 e⁻/Å². Data collection was automated using SerialEM using a defocus range of −1.2 to −2.2 μm.
(§2) To delineate the architecture of this Type III-Dv effector, we used cryo-EM to determine a 2.5-Å resolution structure of the complex containing the nt crRNA (FIG. 1e,f, FIG. 8). To gain preliminary insights, we generated initial models of each subunit using Alphafold 2. […]

Data set [2] addresses Type III-Dv effector complex (Cas10, Cas7-Cas5-Cas11, Cas7-2x, Csx19, Cas7-insertion) (Synechocystis sp. PCC 6803). Put plainly: structure; cryo-EM 2.5 A binary complex with 37-nt crRNA. The following applies: tags: N-terminal His6-TEV on Cas10. As to the method:
as §1, §2

Data set [3] deals with T2, Cas10 subunit of the Synechocystis sp. PCC 6803 Type III-Dv CRISPR-Cas complex, with N-terminal His6 tag and … (Synechocystis sp. PCC 6803).
T2 construct: Whole gene amplified from Synechocystis genomic DNA and co-expressed in E. coli from pPF2434; The complex also holds a 37-nt crRNA; also called His6-TEV-Cas10; N-His6-tagged Cas10; not shown: TEV cleavage was inefficient, so
T2 chain: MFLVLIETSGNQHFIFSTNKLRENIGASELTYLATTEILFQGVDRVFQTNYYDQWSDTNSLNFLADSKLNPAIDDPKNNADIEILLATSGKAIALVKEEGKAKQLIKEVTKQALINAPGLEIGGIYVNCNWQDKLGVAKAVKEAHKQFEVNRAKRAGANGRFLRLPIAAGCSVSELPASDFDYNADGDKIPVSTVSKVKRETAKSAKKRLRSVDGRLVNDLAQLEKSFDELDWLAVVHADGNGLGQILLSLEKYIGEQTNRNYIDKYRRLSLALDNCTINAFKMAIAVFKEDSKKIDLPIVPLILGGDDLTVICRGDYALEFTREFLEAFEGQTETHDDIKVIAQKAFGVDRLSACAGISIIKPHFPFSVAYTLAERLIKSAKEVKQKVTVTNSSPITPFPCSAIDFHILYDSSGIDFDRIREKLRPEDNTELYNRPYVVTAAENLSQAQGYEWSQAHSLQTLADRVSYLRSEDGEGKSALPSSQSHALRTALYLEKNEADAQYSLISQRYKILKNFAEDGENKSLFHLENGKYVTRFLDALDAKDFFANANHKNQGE
The data set can be described thus: cryo-EM structure (summary of Example 1). As to the method:
as §1

Data set [4] addresses B1. Put plainly: cryo-EM structure (summary of Example 1). As to the method:
as §1

Take B1: the binding result in data set [1] was “binds”.

Take ACUGAAACUGUAGUAGAACCAAUCGGGGUCGUCAAUA (ssRNA) [mature crRNA spacer 1]: the binding result in data set [2] is recorded as “binds”.

B2: Csx19 subunit of the Synechocystis sp. PCC 6803 Type III-Dv complex (other)
chain: MPAGGRLMKNLYHYHQYEITLESAVDSCKNHLQAAIGLLYSPQKCELVKLDNSGKLVDSYNRLKFNNLGVFEARFFNLNCELRWVNESNGNGTAVLLSESDITLTGFEKGLQEFITAIDQQYLLWGEPAKHPPNADGWQRLAEARIGKLDIPLDNPLKPKDRVFLTSEEYIAEVDDFGNCAVIDERLIKLEVK
notes: Untagged, co-expressed from pPF2434 in E. coli; one copy in the complex
For B2, the binding result in data set [3] and in data set [4] was “binds” in each case.

Values taken from patent US20250361544A1, “TYPE III-D CRISPR-CAS SYSTEM AND USES THEREOF” (BOARD OF REGENTS, THE UNIVERSITY OF TEXAS SYSTEM, published 2025).
